Data: patent US20130330343A1 (AbbVie / Abbott, published 2013)
Changes are numbered by the printed parent chain.

B1: RGMA-h5F9Vh7a/pJP291 hIgG1/K mut (antibody, V domains shown)
VH: EVQLVESGGGLVQPGGSLRLSCAASGFTFSNYGMNWIRQAPGKGLEWIGMIYYDSSEKHYADSVKGRFTISRDNSKNTLYLQMNSLRAEDTAVYYCAKGTTPDYWGQGTMVTVSS
VL: DVVLTQSPLSLPVTLGQPASISCRSSQSLESSDGDTFLEWFQQRPGQSPRLLIYDVSTRFSGVPDRFSGSGSGTDFTLKISRVEAEDVGVYYCFQVTHDPVTFGQGTKLEIK
notes: Tested as IgG; also called h5F9.AM4; H5F9AM.4
B2: humanized antibody 5F9.23 (antibody, V domains shown)
VH: B1 VH
VL: DVVLTQSPLSLPVTLGQPASISCRSSQSLEYSDGYTFLEWFQQRPGQSPRLLIYEVSNRFSGVPDRFSGSGSGTDFTLKISRVEAEDVGVYYCFQATHDPLTFGQGTKLEIKR
notes: also called h5F9.23; H5F9.23
B3: RGMA-h5F9pJP297/pJP298 hIgG1/K mut (antibody, V domains shown)
VH: B1 VH
VL: B1 VL with S31E, D35Y, E39H, D55E, V96A, V101L
notes: Tested as IgG; also called h5F9.AM8; H5F9AM.8
B4: RGMA-h5F9pJP302/pJP303 hIgG1/K mut (antibody, V domains shown)
VH: B1 VH with I37V, I48V, G49S
VL: B1 VL with S31D, D35G, T58S, V96A, V101L, T102S
notes: Tested as IgG; also called h5F9.AM11; H5F9AM.11
B5: RGMA-h5F9pJP297/pJP299 hIgG1/K mut (antibody, V domains shown)
VH: B1 VH with L11V, G16R, I37V, I48V, G49A, K98R
VL: B1 VL with E30A, S31D, E39H, D55A, T58H, V96A
notes: Tested as IgG; also called h5F9.AM9; H5F9AM.9

Columns and labels:
[1] = molecular target: T1, hRGMc expressed in 293HEK cells (human, UniProt Q6ZVN8 36-400); assay: cell-based or functional assay
T1 sequence: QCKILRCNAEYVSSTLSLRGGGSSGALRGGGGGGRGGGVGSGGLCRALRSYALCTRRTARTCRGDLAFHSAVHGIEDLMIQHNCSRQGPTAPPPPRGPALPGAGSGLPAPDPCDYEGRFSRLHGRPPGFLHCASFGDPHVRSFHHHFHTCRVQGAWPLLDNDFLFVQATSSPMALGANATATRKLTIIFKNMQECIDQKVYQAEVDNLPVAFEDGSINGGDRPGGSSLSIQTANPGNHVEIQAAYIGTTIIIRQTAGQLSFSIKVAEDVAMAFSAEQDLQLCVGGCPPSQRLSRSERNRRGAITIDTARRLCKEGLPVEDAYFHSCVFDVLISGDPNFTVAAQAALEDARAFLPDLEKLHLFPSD

[2] = molecular target: T2, Rat RGMa (rat) (UniProt D4A188); assay: BIAcore; Ab captured via anti-hIgG Fc on CM5 chip, antigen injected; 1:1 Langmuir fit
T2 sequence: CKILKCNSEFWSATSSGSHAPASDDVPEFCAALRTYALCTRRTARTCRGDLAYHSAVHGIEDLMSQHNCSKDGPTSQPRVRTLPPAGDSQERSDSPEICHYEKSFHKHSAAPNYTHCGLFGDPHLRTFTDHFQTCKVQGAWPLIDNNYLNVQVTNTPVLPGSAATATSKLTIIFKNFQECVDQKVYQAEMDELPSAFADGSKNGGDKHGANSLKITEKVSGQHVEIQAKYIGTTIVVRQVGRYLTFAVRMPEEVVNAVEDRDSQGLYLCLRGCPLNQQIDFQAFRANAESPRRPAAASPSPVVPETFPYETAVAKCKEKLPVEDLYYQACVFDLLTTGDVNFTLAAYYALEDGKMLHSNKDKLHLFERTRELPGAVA

[3] = molecular target: T3, Rat RGMa-His (rat) (UniProt D4A188); assay: Affinity KD (nM); (BIAcore per Example 4)
T3 sequence: T2 sequence

[4] = molecular target: T4, human RGMa (human, UniProt Q96B86 48-422, limits assumed); assay: BIAcore; Ab captured via anti-hIgG Fc on CM5 chip, antigen injected; 1:1 Langmuir fit
T4 construct: also called hRGMa; h RGMa
T4 sequence (looked up): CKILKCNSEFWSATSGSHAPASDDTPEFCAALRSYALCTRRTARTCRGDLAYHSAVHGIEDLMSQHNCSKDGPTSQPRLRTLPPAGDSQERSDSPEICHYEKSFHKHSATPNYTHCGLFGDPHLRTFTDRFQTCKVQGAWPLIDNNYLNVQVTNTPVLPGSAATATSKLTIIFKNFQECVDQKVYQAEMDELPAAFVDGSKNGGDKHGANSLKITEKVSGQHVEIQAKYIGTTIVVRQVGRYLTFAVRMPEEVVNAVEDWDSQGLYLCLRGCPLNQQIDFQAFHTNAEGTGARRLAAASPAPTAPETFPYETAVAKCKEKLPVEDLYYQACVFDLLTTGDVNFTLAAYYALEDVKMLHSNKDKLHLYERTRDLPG
Experimental: (§1) The potency data correlates with the affinity data (see Table 5). The affinity of h5F9.23 affinity matured Abs towards human RGMa, rat RGMa, and human RGMc were determined by BIAcore analysis (Table 5). Testing Abs were captured to the surface of a CM5 chip via anti-hIgG Fc Ab, and serially diluted antigens were injected. Association and dissociation rates were monitored for 5 and 10 min respectively. Sensorgrams were fitted by global analysis using the BIAevaluation 4.0.1 software for a 1:1 Langmuir binding model. The equilibrium dissociation constants (KD) were calculated from kinetic rate constants (off rate kd and on rate ka): KD=kd/ka.

[5] = molecular target: T5, human RGMc (human, UniProt Q6ZVN8 36-400, limits assumed); assay: as above
T5 construct: also called hRGMc
T5 sequence: T1 sequence
Experimental: as §1

[6] = molecular target: T6, R&D hRGMc-His (human, UniProt Q6ZVN8 36-400); assay: Affinity KD (nM); (BIAcore per Example 4)
T6 construct: Bought (R&D); not shown: His tag
T6 sequence: T1 sequence
Experimental: as §1

[7] = molecular target: T7, hRGMa-His (human, UniProt Q96B86 48-422, limits assumed); assay: Affinity KD (nM); (BIAcore per Example 4)
T7 construct: not shown: His tag
T7 sequence (looked up): T4 sequence (looked up)
Experimental: as §1

[8] = molecular target: T1, hRGMc expressed in 293HEK cells; assay: cell-based or functional assay; remark: listed apart in the source

| Binder | IC50 (inhibition of RGMc-mediated BRE-luciferase activity, RLU, in 293HEK cells transfected with hRGMc) [1] | Kd [2] | koff [2] | kon [2] | Kd [3] | Kd [4] | koff [4] | kon [4] | Kd [5] | koff [5] | kon [5] | Kd [6] | Kd [7] | IC50, RGMc-mediated BMP reporter (BRE-luc) assay in 293HEK cells [8] |
| --- | --- | --- | --- | --- | --- | --- | --- | --- | --- | --- | --- | --- | --- | --- |
| B1 | 0.31 nM | < 0.00094 nM | < 1e-06 s⁻¹ | 1.1e+06 M⁻¹ s⁻¹ | < 0.00094 nM | 0.015 nM | 2.2e-05 s⁻¹ | 1.4e+06 M⁻¹ s⁻¹ | 0.13 nM | 0.00104 s⁻¹ | 7.85e+06 M⁻¹ s⁻¹ | 0.12 nM | 0.015 nM | – |
| B2 | 17.1 nM | 2.1 nM | 0.0017 s⁻¹ | 830000 M⁻¹ s⁻¹ | – | 3.7 nM | 0.0022 s⁻¹ | 600000 M⁻¹ s⁻¹ | 29 nM | – | 830000 M⁻¹ s⁻¹ | – | – | 17 nM |
| B3 | 0.38 nM | < 0.0015 nM | < 1e-06 s⁻¹ | 660000 M⁻¹ s⁻¹ | < 0.0015 nM | 0.031 nM | 2.7e-05 s⁻¹ | 870000 M⁻¹ s⁻¹ | 0.105 nM | 0.00039 s⁻¹ | 3.95e+06 M⁻¹ s⁻¹ | 0.08 nM | 0.031 nM | – |
| B4 | 0.51 nM | 0.074 nM | 5.2e-05 s⁻¹ | 700000 M⁻¹ s⁻¹ | 0.074 nM | 0.11 nM | 9.9e-05 s⁻¹ | 930000 M⁻¹ s⁻¹ | 0.285 nM | 0.0014 s⁻¹ | 5.05e+06 M⁻¹ s⁻¹ | 0.25 nM | 0.11 nM | – |
| B5 | 1.36 nM | 0.31 nM | 0.00021 s⁻¹ | 680000 M⁻¹ s⁻¹ | 0.31 nM | 0.47 nM | 0.0004 s⁻¹ | 860000 M⁻¹ s⁻¹ | 0.71 nM | 0.0107 s⁻¹ | 1.55e+07 M⁻¹ s⁻¹ | 0.69 nM | 0.47 nM | – |
